The target in experiment [1] is Sialic acid-binding immunoglobulin-like lectin 8 (SIGLEC-8), antigen of the Carterra SPR studies (UniProt Q9NYZ4 17-363, limits assumed). The experiment is described as follows: Carterra SPR. A digest of the protocol:
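Values are rate constants or dissociation constants for antibodies binding SIGLEC-8, measured by surface plasmon resonance on a Carterra instrument. The antibodies were drawn from synthetic libraries through four rounds of bead-based panning. Clones picked by clonal ELISA were expressed and purified prior to measurement.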

For experiment [2], the target named is T1, SIGLEC-8 transiently expressed on cells (UniProt Q9NYZ4 17-499, limits assumed).
T1 construct: whole, on cells; Two cassettes are described (P2A mVenus and direct mVenus fusion); also called the transient line; pTT5-SIGLEC-8 P2A mVenus
The experiment is described as follows: cell binding titration, transient SIGLEC-8 line.

Chain of Sialic acid-binding immunoglobulin-like lectin 8 (SIGLEC-8), antigen of the Carterra SPR studies (Q9NYZ4 17-363 limits assumed): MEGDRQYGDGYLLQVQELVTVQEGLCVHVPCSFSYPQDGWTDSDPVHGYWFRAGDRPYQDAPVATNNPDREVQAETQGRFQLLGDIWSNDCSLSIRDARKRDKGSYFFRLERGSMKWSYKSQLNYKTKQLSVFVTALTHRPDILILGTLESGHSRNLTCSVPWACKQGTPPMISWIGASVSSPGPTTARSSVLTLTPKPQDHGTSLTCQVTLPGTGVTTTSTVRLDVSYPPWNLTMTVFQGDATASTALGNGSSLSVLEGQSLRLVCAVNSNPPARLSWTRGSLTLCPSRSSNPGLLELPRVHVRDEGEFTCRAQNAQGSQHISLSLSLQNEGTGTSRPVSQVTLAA
T1 sequence (Q9NYZ4 17-499 limits assumed): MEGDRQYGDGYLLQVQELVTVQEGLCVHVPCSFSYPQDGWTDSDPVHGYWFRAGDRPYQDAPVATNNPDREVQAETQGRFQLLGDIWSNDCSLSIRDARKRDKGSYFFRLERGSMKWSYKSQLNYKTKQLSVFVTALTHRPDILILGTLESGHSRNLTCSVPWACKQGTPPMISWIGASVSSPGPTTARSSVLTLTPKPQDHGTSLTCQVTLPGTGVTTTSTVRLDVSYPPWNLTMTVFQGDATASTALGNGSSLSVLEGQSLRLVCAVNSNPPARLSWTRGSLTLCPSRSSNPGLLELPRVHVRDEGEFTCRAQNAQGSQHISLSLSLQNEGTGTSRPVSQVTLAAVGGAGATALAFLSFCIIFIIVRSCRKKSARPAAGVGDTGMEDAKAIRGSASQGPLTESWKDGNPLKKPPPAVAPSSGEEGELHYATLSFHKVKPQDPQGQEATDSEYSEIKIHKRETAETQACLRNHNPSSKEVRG

B1: SIGLEC-8-33 (antibody, human IgG1, kappa, V domains shown)
VH: EVQLLESGGGLVQPGGSLRLSCAASGFAFSDYAMSWVRQAPGKGLEWVSAITGSGDYTYYADSVKGRFTISRDNSKNTLYLQMNSLRAEDTAVYYCARDTGGMDVWGQGTLVTVSS
VL: DIQMTQSTSSLSASVGDRVTITCRASQSIHSYLNWYQQKPGKAPILIYAASSLERGVPSRFSGSGSGTDFTLTISSLQPEDFATYYCQQSYITPYSFGGGTKVEIKR
notes: tested as expressed and purified mAb
As a reminder, the Kd is a measure of binding affinity in units of concentration. In general, EC50 refers to the midpoint of the concentration-response curve. Read a low EC50 as a more potent agent. As to B1, the dissociation constant (Kd) in experiment [1] was found to be 2.5 nM. In experiment [2], this molecule yielded an EC50 of 133 nM.

B2: SIGLEC-8-50 (antibody, human IgG1, kappa, V domains shown)
VH: EVQLLESGGGLVQPGGSLRLSCAASGFTLSNYAMTWVRQAPGKGLEWVSTVSGSGASTYYADSVKGRFTISRDNSKNTLYLQMNSLRAEDTAVYYCAREDSGKYLSLDYWGQGTLVTVSS
VL: DIQMTQSPSSLSASVGDRVTITCRASQSIGSYLNWYQQKPGKAPKLLIYSASSLQTGVPSRFSGSGSGTDFTLTISSLQPEDFATYYCQQTYNTPITFGGGTKVEIKR
notes: as for B1
Molecule B2 came in with a dissociation constant (Kd) in experiment [1] of 1.21 nM. Also, the half-maximal effective concentration (EC50) in experiment [2] was determined as 1.15 nM.

B3: SIGLEC-8-3 (antibody, human IgG1, kappa, V domains shown)
VH: EVQLLESGGGLVQPGGSLRLSCAASGFTFSTYDMTWVRQAPGKGLEWVSSIGGSGRSTYYADSVKGRFTISRDNSKNTLYLQMNSLRAEDTAVYYCARGSASAWFAFDYWGQGTLVTVSS
VL: DIQMTQSPSSLSASVGDRVTITCRASQSIARYLNWYQQKPGKAPKLLIYGASDLQSGVPSRFSGSGSGTDFTLTISSLQPEDFATYYCQQSYRTSYTFGGGTKVEIKR
notes: as for B1
B3: in experiment [1], the affinity, expressed as Kd, was 242 nM. Moreover, in experiment [2], a half-maximal effect (EC50) was put at 6.46 nM.

B4: SIGLEC-8-39 (antibody, human IgG1, kappa, V domains shown)
VH: EVQLLESGGGLVQPGGSLRLSCAASGFTFSRYGMSWVRQAPGKGLEWVSATSGSGGTTYYADSVKGRFTISRDNSKNTLYLQMNSLRAEDTAVYYCARVGGSGWYPNDYWGQGTLVTVSS
VL: DIQMTQSPSSLSASVGDRVTITCRASQSVSRFLNWYQQKPGKAPKLLIYGASTLQTGVPSRFSGSGSGTDFTLTISSLQPEDFATYYCQQSYTTPHTFGGGTKVEIKR
notes: as for B1
As to B4, in experiment [1], binding was characterised by a dissociation constant (Kd) of 159 nM. The EC50 in experiment [2] worked out at 4.47 nM.

B5: SIGLEC-8-2 (antibody, human IgG1, kappa, V domains shown)
VH: EVQLLESGGGLVQPGGSLRLSCAASGFTFSKHAMSWVRQAPGKGLEWVSGISGSGARTYYADSVKGRFTISRDNSKNTLYLQMNSLRAEDTAVYYCARQSRGGSLGMDVWGQGTLVTVSS
VL: DIQMTQSPSSLSASVGDRVTITCRASQRISSYLNWYQQKPGKAPKLLIYGASILQTGVPSRFSGSGSGTDFTLTINSLQPEDFATYYCQESYSTPFTFGGGTKVEIKR
notes: as for B1
Take B5: in experiment [1], the affinity, expressed as Kd, was 160000 nM. The midpoint of the response in experiment [2], the EC50, lay at 8.28 nM.

B6: SIGLEC-8-6 (antibody, human IgG1, kappa, V domains shown)
VH: EVQLLESGGGLVQPGGSLRLSCAASGFSFSSYGMSWVRQAPGKGLEWVSTISGSGGGTYYADSVKGRFTISRDNSKNTLYLQMNSLRAEDTAVYYCAREESGKYLSLDHWGQGTLVTVSS
VL: DIQMTQSPSSLSASVGDRVTITCRASQTIRSYLNWYQQKPGKAPKLLIYAASSLHTGVPSRFSGSGSGTDFTLTISSLQPEDFATYYCQQSYTTPITFGGGTKVEIKR
notes: as for B1
In experiment [1], B6 registered a Kd of 4.68 nM. The molecule further came in with an EC50 in experiment [2] of 2.43 nM.

B7: SIGLEC-8-15 (antibody, human IgG1, kappa, V domains shown)
VH: EVQLLESGGGLVQPGGSLRLSCAASGFTFSTYTMNWVRQAPGKGLEWVSVISGSGDDTYYADSVKGRFTISRDNSKNTLYLQMNSLRAEDTAVYYCTRAGEQHHYYGMDVWGQGTLVTVSS
VL: DIQMTQSPSSLSASVGDRVTITCRASQTISTSLNWYQQKPGKAPKLLIYGASTLQRGVPSRFSGSGSGTDFTLTISSLQPEDFATYYCRQSYSTPITFGGGTKVEIKR
notes: as for B1
B7 returned a Kd in experiment [1] of 2.57 nM.

B8: SIGLEC-8-16 (antibody, human IgG1, kappa, V domains shown)
VH: EVQLLESGGGLVQPGGSLRLSCAASGFTFSDYGMSWVRQAPGKGLEWVLAISGSGATTYYADSVKGRFTISRDNSKNTLYLQMDSLRAEDTAVYYCAREGGSTYYSLDYWGQGTLVTVSS
VL: DIQMTQSPSSLSASVGDRVTITCRTSQSIGSYLNWYQQKPGKAPKLLIYATSNLHSGVPSRFSGSGSGTDFTLTISSLQPEDFATYYCQQSYKTPYTFGGGTKVEIKR
notes: as for B1
On to B8, for which the dissociation constant Kd in experiment [1] was found to be 2.02 nM. The response in experiment [2] was half-maximal at 2.87 nM (EC50).

B9: SIGLEC-8-28 (antibody, human IgG1, kappa, V domains shown)
VH: EVQLLESGGGLVQPGGSLRLSCAASGSPFSNYAMSWVRQAPGKGLEWVSSISGGGASTYYADSVKGRFTISRDNSKNTLYLQMNSLRAEDTAVYYCAREKDNSWFGMDVWGQGTLVTVSS
VL: DIQMTQSPSSLSASVGDRVTITCRASQSIDRYLNWYQQKPGKAPKLLIYGASTLQTGVPSRFSGSGSGTDFTLTISSLQPEDFATYYCQQTYSTPITFGGGTKVEIKR
notes: as for B1
Take B9: the Kd in experiment [1] stood at 3.49 nM. Besides, the 50% effective concentration (EC50) in experiment [2] is 1.02 nM.

B10: SIGLEC-8-25 (antibody, human IgG1, kappa, V domains shown)
VH: EVQLLESGGGLVQPGGSLRLSCAASGFTFSKYAMDWVRQAPGKGLEWVSDISGSGGTTYYADSVKGRFTISRDNSKNTLYLQMNSLRAEDTAVYYCVRAGLVGYDFDIWGQGTLVTVSS
VL: DIQMTQSPSSLSASVGDRVTITCRASESISSYLNWYQQKPGKAPKLLIYGASILQGGVPSRFSGSGSGTDFTLTISSLQPEDFATYYCQQSYSFPITFGGGTKVEIKR
notes: as for B1
For the molecule B10, the Kd in experiment [1] was determined as 50.6 nM. This molecule displayed an EC50 in experiment [2] of 7.63 nM.

B11: SIGLEC-8-14 (antibody, human IgG1, kappa, V domains shown)
VH: EVQLLESGGGLVQPGGSLRLSCAASGFSFSNHAMTWVRQAPGKGLEWVSGISGSSGSTYYADSVKGRFTISRDNSKNTLYLQMNSLRAEDTAVYYCAREGRVAAYFDSWGQGTLVTVSS
VL: DIQMTQSPSSLSASVGDRVTITCRASQGISGYLNWYQQKPGKAPKLLIYGASRLQNGVPSRFSGSGSGTDFTLTISSLQPEDFATYYCQQSYTTPITFGGGTKVEIKR
notes: as for B1
B11 had an equilibrium dissociation constant (Kd) in experiment [1] of 65.4 nM. The molecule also had an EC50 in experiment [2] of 20.8 nM.

B12: SIGLEC-8-9 (antibody, human IgG1, kappa, V domains shown)
VH: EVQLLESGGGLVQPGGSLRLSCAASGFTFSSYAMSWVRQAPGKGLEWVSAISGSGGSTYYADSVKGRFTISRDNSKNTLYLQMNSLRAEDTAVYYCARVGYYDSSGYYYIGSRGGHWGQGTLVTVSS
VL: DIQMTQSPSSLSASVGDRVTITCRTSQTISTYLNWYQQKPGKAPKLLIYDASDLQSGVPSRFSGSGSGTDFTLTISSLQPEDFATYYCQQNYITPNTFGGGTKVEIKR
notes: as for B1
With B12, the Kd in experiment [1] came out at 8080 nM. In experiment [2], this molecule showed an EC50 of 1590 nM.

B13: SIGLEC-8-51 (antibody, human IgG1, kappa, V domains shown)
VH: EVQLLESGGGLVQPGGSLRLSCAASGFTFPRYGMSWVRQAPGKGLEWVTATSGSGGTTYYADSVKGRFTISRDNSKNTLYLQMNSLRAEDTAVYYCARDESSGWYPKDYWGQGTLVTVSS
VL: DIQMTQSPSSLSASVGDRVTITCRASQSVSRFLNWYQQKPGKAPKLLIYGASNLEGGVPSRFSGSGSGTDFTLTISSLQPEDFATYYCQQSYTTPHTFGGGTKVEIKR
notes: as for B1
With B13, the affinity in experiment [1], expressed as Kd, was 10 nM. This lies in the double-digit nanomolar range.

B14: SIGLEC-8-29 (antibody, human IgG1, kappa, V domains shown)
VH: EVQLLESGGGLVQPGGSLRLSCAASGFTFSRHAMTWVRQAPGKGLEWVSAISSSGDNTYYVDSVKGRYTISRDNSKNTLYLQMNSLRAEDTAVYYCARIHRNGHAFDIWGQGTLVTVSS
VL: DIQMTQSPSSLSASVGDRVTITCRASQSIHTYLNWYQQKPGKAPKLLIYGASTLRSGVPSRFSGSGSGTDFTLTISSLQPEDFATYYCQQSYSTPLLTFGGGTKVEIKR
notes: as for B1
Turning to B14, binding in experiment [1] was put at a Kd of 326 nM. Moreover, the EC50 in experiment [2] was 355 nM.

B15: SIGLEC-8-46 (antibody, human IgG1, kappa, V domains shown)
VH: EVQLLESGGGLVQPGGSLRLSCAASGLTFSRYAMSWVRQAPGKGLEWVSTVSGSGVSTYYADSVKGRFTISRDNSKNTLYLQMNSLRAEDTAVYYCARARGGSSRYYYGMDVWGQGTLVTVSS
VL: DIQMTQSPSSLSASVGDRVTITCRASQTIDKYLNWYQQKPGKAPKLLIYGASRLQNGVPSRFSGSGSGTDFTLTISSLQPEDFATYYCQQSYTTPTFGGGTKVEIKR
notes: as for B1
For the molecule B15, in experiment [1], the Kd was 152000 nM. Moreover, the half-maximal effective concentration (EC50) in experiment [2] came out at 32.8 nM.

B16: SIGLEC-8-13 (antibody, human IgG1, kappa, V domains shown)
VH: EVQLLESGGGLVQPGGSLRLSCAASGFTFSSYDMNWVRQAPGKGLEWVSAISGSGVGTYYADSVKGRFTISRDNSKNTLYLQMNSLRAEDTAVYYCSKDVRWSPGGMDVWGQGTLVTVSS
VL: DIQMTQSPSSLSASVGDRVTITCRASQSVSIYLNWYQQKPGKAPKLLIYATSNLHSGVPSRFSGSGSGTDFTLTISSLQPEDFATYYCQQSHSTPYTFGGGTKVEIKR
notes: as for B1
Turning to B16, the binding result in experiment [1] was “no binding”. Besides, the EC50 in experiment [2] stood at 50.7 nM.

B17: SIGLEC-8-47 (antibody, human IgG1, kappa, V domains shown)
VH: EVQLLESGGGLVQPGGSLRLSCAASGFTFSTHAMSWVRQAPGKGLEWVSTISGSGDITYYADSVKGRFTISRDNSKNTLYLQMNSLRAEDTAVYYCARQSRGGSLGMDVWGQGTLVTVSS
VL: DIQMTQSPSSLSASVGDRVTITCRASQTISRYLNWYQQKPGKAPKLLIYAASNLYSGVPSRFSGSGSGTDFTLTISSLQPEDFATYYCQQSFATPYTFGGGTKVEIKR
notes: as for B1
B17 had a Kd in experiment [1] of 32.7 nM. Moreover, the EC50 in experiment [2] turned out to be 1.88 nM.

B18: SIGLEC-8-38 (antibody, human IgG1, kappa, V domains shown)
VH: EVQLLESGGGLVQPGGSLRLSCAASGFTFSPYAMSWVRQAPGKGLEWVSGIGGSGGSTYYADSVKGRFTISRDNSKNTLYLQMNSLRAEDTAVYYCARDYGGYYFDYWGQGTLVTVSS
VL: DIQMTQSPSSLSASVGDRVTITCRASQYISNYLNWYQQKPGKAPKLLIYATSTLESGVPSRFSGSGSGTDFTLTISSLQPEDFATYYCQQGYSVPWTFGGGTKVEIKR
notes: as for B1
Regarding B18, in experiment [1], the Kd turned out to be 46200 nM. The molecule also registered an EC50 in experiment [2] of 10.6 nM.

B19: SIGLEC-8-23 (antibody, human IgG1, kappa, V domains shown)
VH: EVQLLESGGGLVQPGGSLRLSCAASGLTFSSYAMSWVRQAPGKGLEWVSAISGSGVGTYYADSVKGRFTISRDNSKNTLYLQMNSLRAEDTAVYYCAKHTSSSWYPLDYWGQGTLVTVSS
VL: DIQMTQSPSSLSASVGDRVTITCRSSQSITTYLNWYQQKPGKAPKLLIYAASNLYSGVPSRFSGSGSGTDFTLTISSLQPEDFATYYCQQSHTTPLTFGGGTKVEIKR
notes: as for B1
B19 came in with a Kd in experiment [1] of 10.1 nM. Further, the EC50 in experiment [2] stood at 0.855 nM.

Source of the values: patent US20260001953A1 (TWIST BIOSCIENCE, published 2026).
